This is an account of results in patent US9822156B2, “Amyloid beta expression constructs and uses therefor” (Whitehead Institute for Biomedical Research, priority 2014, dated 2017).

Positions count from the first letter of the chain named. Names and notes keep the numbering of the source.

One data set has as its system 293T cells. The data set can be described thus: TOXILIGHT cytotoxicity assay in stable doxycycline-inducible poly-Aβ 293T cell lines. It counts as cell-based. The following applies: 72-96 hours following doxycycline induction. An excerpt: Similar to the poly-Aβ (Aβ40 or Aβ42_1X/4X/6X/8X) expression constructs in yeast (see Example 1), a poly-Aβ toxicity model was developed in mammalian cells. Stable cell lines with chromosomally-integrated tetracycline (doxycycline)-inducible […] transgenes (Aβ42-4X, Aβ42-6X, Aβ40-4X, Aβ40-6X and Aβ42-Arctic-4X) linked to an N-terminal insulin signal peptide were generated (FIGS. 13A-13B). These expression constructs were generated using the pLix402 lentiviral plasmid (FIG. 12). The poly-Aβ constructs were individually transfected into 293T cells along with the lentiviral packaging plasmid psPAX and the viral envelope-expressing plasmid mMD2.G using LIPOFECTAMINE® 2000 (Invitrogen) transfection reagent to generate lentivirus containing the poly-Aβ transgene. The virus was harvested from the supernatant of transfected 293T cells 2 and 3 days post-transfection and subsequently purified and concentrated using the LENTI-X™ Maxi Purification kit (Clontech) according to the manufacturer's instructions.
To generate stable cells harboring the expression transgene for the poly-Aβ constructs, 293T cells were infected using POLYBRENE® infection reagent (Sigma Aldrich), which is used to introduce retroviral vectors into mammalian cells. Infected cells were then selected using puromycin (2-10 μg/ml). Infected cells harboring the transgene survive this selection pressure whereas the control cells without the transgene die in 2-3 days. Aliquots of the selected cells were frozen in liquid nitrogen or maintained and propagated for further applications.
Expression of Aβ peptide from these stable cell lines was measured in the culture supernatant 72-96 hours following doxycycline induction (FIG. 13D). Toxicity was measured 72-96 hours following doxycycline induction using a TOXILIGHT™ cytotoxicity assay (Lonza) as described in Example 2.

The test system of another data set is Yeast cells. The data set can be described thus: Yeast growth spotting assay of Aβ expression constructs on glucose or galactose media. It is filed as cell-based. Conditions: galactose-induced expression from 2μ high-copy plasmid pAG425Gal. An excerpt: The Aβ sequence was codon optimized for expression in yeast. The Aβ expression construct consists of attB Gateway flanking regions at the 5′ and 3′ ends (nucleotides […] (SEQ ID NO:84) and […] (SEQ ID NO:85), respectively) for Gateway cloning of MatαPrepro-Aβ42 sequence. The entire construct was synthesized into pUC57-Kan plasmid and cloned into the Gateway entry vector pDONR221. These constructs were then transferred into the pAG425Galexpression vector by Gateway LR cloning (Alberti et al., “A suite of Gateway cloning vectors for high throughput genetic analysis in Saccharomyces cerevisiae,” Yeast 24:913 (2007)). The GAL1 promoter enables expression of Aβ fusion transgenes under galactose-inducible conditions. The vector has an ampicillin resistant gene for amplification of the vector in E. coli and leucine auxotrophic marker (LEU2) for selection of transformed yeast cells on media lacking leucine (FIG. 2).
Yeast cells transformed with either an expression vector containing galactose-inducible green fluorescent protein (GFP) or a galactose-inducible expression plasmid encoding a yeast mating factor alpha signal sequence/human amyloid beta 1-42 (Aβ42) or 1-40 (Aβ40) or scrambled Aβ42 fusion polypeptide were grown on glucose or galactose containing synthetic media and growth was assessed. Transformed cells were selected in medium lacking leucine. Individual transformants were grown overnight in complete synthetic medium (CSM) lacking leucine with 2% raffinose as the carbon source. Cell concentrations (OD600) were adjusted in a 96-well plate to OD 0.5 or 1. Cells were then 5-fold serially diluted and spotted on SD media containing glucose (uninduced) and galactose (induced). Plates were incubated at 30° C. for 2 days (glucose) or 3 to 4 days (galactose).

For data set [1], the system named is Rat embryonic cortical neurons. In words: […] ATP viability assay in neurons infected with lentiviral poly-Aβ constructs. It counts as cell-based. The following applies: three weeks post doxycycline-induction (2 μg/ml). An excerpt:
Rat embryonic cortical neurons were infected with lentiviral poly-Aβ expression constructs to model poly-Aβ toxicity. Tetracycline (doxycycline)-inducible poly-Aβ (Aβ42-4X, Aβ42-6X, Aβ40-4X, Aβ40-6X, and Aβ42-Arctic-4X) viral constructs described in Example 5 were used to express poly-Aβ constructs in rat cortical neurons. In each expression construct, the poly-Aβ coding sequence is linked to an N-terminal insulin signal peptide. The poly-Aβ expression plasmids were packaged in lentiviral particles, which were generated by 293T cells as described in Example 3.
Rat cortical neurons were enriched from cortices dissected out of embryonic (E18) rat brains and enriched in adherent monolayer culture as described in Example 3. Purified lentiviral preparations at different MOI were used to infect these cortical neurons to express poly-Aβ transgenes. Three days post-infection, expression of poly-Aβ was induced by adding doxycycline (2 μg/ml) to the infected cultures.

The subject of the next data set is Rat cortical neurons. In words: Fluorescence microscopy of neuronal survival and morphology after lentiviral Aβ infection (GFP live imaging, Map2 staining). It is filed as cell-based. The following applies: for neuronal survival and morphology, GFP live neuron imaging: 21 days after initial infection, identical MOI; for neuronal survival and morphology, Map2 immunostaining: twenty-one days post-infection. As to the method: Rat cortical neurons were infected with a doxycycline-inducible lentiviral GFP construct. Two days post-infection, the cells were infected again with neuron-specific (synapsin promoter) lentiviral Aβ constructs (i.e., Aβ40, Aβ42, and various mutations). The doubly-infected cells were treated with doxycycline 7 days post-infection to express GFP. After 21 days of the initial infection, live neurons were visualized using fluorescence microscopy to observe the effect of different Aβ variants on neuronal survival and morphology by visualizing neurons expressing GFP in presence of Aβ expressed from the transgenes.
Similar observations were also made by immunohistochemical analysis of rat cortical neurons infected with neuron-specific (synapsin promoter) lentiviral Aβ constructs. Twenty-one days post-infection, the neurons were stained with a neuron-specific microtubule-associated protein 2 (Map2) primary antibody (rabbit polyclonal, Millipore) and ALEXA FLUOR® (red fluorophore conjugated) secondary antibody (goat anti-rabbit polyclonal, Life Technologies). Neuronal cells and morphology were visualized to observe the effect of different Aβ mutations using fluorescence microscopy.

The test system of data set [2] is Rat embryonic cortical neurons. Conditions: lentiviral infection, synapsin promoter, secretory pathway expression. An excerpt: Rat embryonic cortical neurons were used for expressing Aβ. For generating lentiviral constructs, an expression vector was used with the human synapsin 1 promoter upstream of the inserted insulin signal peptide-Aβ fusion polypeptide transgene (FIG. 9). The encoded fusion polypeptide is processed in the secretory pathway of the neuron, releasing Aβ in the extracellular milieu.
The pLV-Aβ constructs along with the psPAX2 packaging vector and pMD2.G envelope vector were transfected in 293T cells using LIPOFECTAMINE® 2000 (Invitrogen) transfection reagent following the manufacture's instruction to generate lentivirus containing the Aβ transgene. The virus was purified using LENTI-X™ Maxi Purification Kit (Clontech) from the supernatant of the transfected 293T cells according to the protocol provided by the manufacturer. Viral titer were determined by using Lentivirus-Associated p24 ELISA Kit (Cell BioLabs).
Rat embryonic cortices were dissected out of embryonic (E18) rat brains, and neurons were enriched in adherent monolayer culture. These cortical neurons were infected with lentiviral preparation harboring an Aβ transgene or a control gene (RFP in the same vector backbone). Infected cultures were harvested to quantify the amount of Aβ in the supernatant and cell lysate by Aβ-specific ELISA 21 days after infection (FIG. 10A). Corresponding cytotoxicity of the infected neurons was measured by quantifying ATP levels using […]™ assay for cell viability (Lonza).

For “AB40-6X: doxycycline-inducible construct, insulin signal peptide and six copies of Aβ40, SEQ ID NO:43”, the “Aβ peptide-mediated cytotoxic effect (adenylate kinase release), rank order” value (from here on “Aβ peptide-mediated cytotoxic effect”) with 293T cells was “Aβ42-6X≧Aβ42-Arctic-4X≧Aβ42-4X≧AB40-6X≧Aβ40-4X”.

“Aβ40-4X: doxycycline-inducible construct, insulin signal peptide and four copies of Aβ40, SEQ ID NO:41”: the “Aβ peptide-mediated cytotoxic effect” value with 293T cells is reported as “Aβ42-6X≧Aβ42-Arctic-4X≧Aβ42-4X≧AB40-6X≧Aβ40-4X”.

For the molecule “Aβ42 (1X): yeast expression construct, mating factor alpha prepro sequence with one copy of Aβ42, SEQ ID NO:51”, in the data set on Yeast cells, the “toxicity (inhibition of yeast cell growth) upon expression” value was “not toxic”.

For “Aβ42-4X: doxycycline-inducible construct, insulin signal peptide and four copies of Aβ42, SEQ ID NO:35”, in data set [1], the “cytotoxicity (viability by ATP levels)” value is listed as “profound cytotoxicity compared to Aβ40-4X”. The “Aβ peptide-mediated cytotoxic effect” value with 293T cells is “Aβ42-6X≧Aβ42-Arctic-4X≧Aβ42-4X≧AB40-6X≧Aβ40-4X”.

Take “Aβ42-6X: doxycycline-inducible construct, insulin signal peptide and six copies of Aβ42, SEQ ID NO:39”: in the data set on 293T cells, the “Aβ peptide-mediated cytotoxic effect” value was “Aβ42-6X≧Aβ42-Arctic-4X≧Aβ42-4X≧AB40-6X≧Aβ40-4X”.

As to “Aβ42_I31E: lentiviral construct, insulin signal peptide fused to Aβ42 I31E, SEQ ID NO:21”, in the data set on Rat cortical neurons, the “neuronal survival and morphology, GFP live neuron imaging” value is “reduced cytotoxicity and no significant morphological distortions of the neurons and neurites”; the “neuronal survival and morphology, Map2 immunostaining” value was “reduced cytotoxicity and had no significant effects on the neuronal morphology”. In addition, the “cytotoxicity (ATP levels)” value in data set [2] is reported as “less cytotoxic effects compared to either the wild-type human Aβ42 or the Arctic variation of human Aβ42”.

B1: Aβ42_Arctic (E22G): lentiviral construct, insulin signal peptide fused to Aβ42 E22G, SEQ ID NO:17 (protein)
chain: MALWMRLLPLLALLALWGPDPAAADAEFRHDSGYEVHHQKLVFFAGDVGSNKGAIIGLMVGGVVIA
With B1, in the data set on Rat cortical neurons, the “neuronal survival and morphology, GFP live neuron imaging” value was “caused neuronal death and adversely affected neurite outgrowth and structures”; the “neuronal survival and morphology, Map2 immunostaining” value is “profound cytotoxicity, resulting in massive neuronal loss and distorted neurite structures and outgrowth”. In data set [2], the “cytotoxicity (ATP levels)” value was “more toxic effect compared to the wild-type human Aβ42”.

B2: Aβ42_Arc/I31E: lentiviral construct, insulin signal peptide fused to Aβ42 E22G/I31E, SEQ ID NO:23 (protein)
chain: B1 chain with I55E
Take B2: in the data set with Rat cortical neurons, the “neuronal survival and morphology, GFP live neuron imaging” value is “reduced cytotoxicity and no significant morphological distortions of the neurons and neurites”; the “neuronal survival and morphology, Map2 immunostaining” value is “reduced cytotoxicity and had no significant effects on the neuronal morphology”. In data set [2], the “cytotoxicity (ATP levels)” value is given as “less cytotoxic effects compared to either the wild-type human Aβ42 or the Arctic variation of human Aβ42”.

B3: E22_deletion: yeast construct, four copies of Aβ42 with E22 deleted, SEQ ID NO:79 (protein)
chain: MRFPSIFTAVLFAASSALAAPVNTTTEDETAQIPAEAVIGYLDLEGDFDVAVLPFSNSTNNGLLFINTTIASIAAKEEGVSLDKREAEADAEFRHDSGYEVHHQKLVFFADVGSNKGAIIGLMVGGVVIAKREAEAEADAEFRHDSGYEVHHQKLVFFADVGSNKGAIIGLMVGGVVIAKREADAEADAEFRHDSGYEVHHQKLVFFADVGSNKGAIIGLMVGGVVIAKREADAEADAEFRHDSGYEVHHQKLVFFADVGSNKGAIIGLMVGGVVIA
Take B3: in the data set with Yeast cells, the “toxicity (inhibition of yeast cell growth) upon expression” value is on record as “profound toxicity”.

B4: Arctic: yeast construct, four copies of Aβ42 E22G, SEQ ID NO:75 (protein)
chain: MRFPSIFTAVLFAASSALAAPVNTTTEDETAQIPAEAVIGYLDLEGDFDVAVLPFSNSTNNGLLFINTTIASIAAKEEGVSLDKREAEADAEFRHDSGYEVHHQKLVFFAGDVGSNKGAIIGLMVGGVVIAKREAEAEADAEFRHDSGYEVHHQKLVFFAGDVGSNKGAIIGLMVGGVVIAKREADAEADAEFRHDSGYEVHHQKLVFFAGDVGSNKGAIIGLMVGGVVIAKREADAEADAEFRHDSGYEVHHQKLVFFAGDVGSNKGAIIGLMVGGVVIA
With B4, in the data set on Yeast cells, the “toxicity (inhibition of yeast cell growth) upon expression” value is on record as “profound toxicity”.

B5: Arctic_I31E: yeast construct, four copies of Aβ42 E22G/I31E, SEQ ID NO:77 (protein)
chain: B4 chain with I120E, I170E, I220E, I270E
Regarding B5, in the data set on Yeast cells, the “toxicity (inhibition of yeast cell growth) upon expression” value is “significantly lower amount of toxicity”.

B6: Dutch: yeast construct, four copies of Aβ42 E22Q, SEQ ID NO:71 (protein)
chain: B4 chain with G111Q, G161Q, G211Q, G261Q
Regarding B6, the “toxicity (inhibition of yeast cell growth) upon expression” value with Yeast cells is listed as “profound toxicity”.
